Measurements from the supplement of paper PMC12042874.
± gives the uncertainty stated by the source.

Test: amyloid nucleation score (Sup35N fusion, yeast selection) (log enrichment); library NNK1; higher = more nucleation; inactive = no reads after selection
Summary of the method: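 Growth for 7 days at 30°C on medium lacking adenine and uracil followed a 24-hour induction with 100 μM copper sulfate of psi-negative yeast expressing peptides of 20 random codons fused to Sup35N. Input and output plasmid inserts were sequenced with Illumina, and sequences with under 100 input reads were excluded. Nucleation score is the DiMSum log enrichment of output over input reads, centred on the mode score of non-aggregating sequences.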

| Substance | amyloid nucleation score |
| --- | --- |
| FFFALFFQRSTTRGWLSGQL | 0.91 ± 0.62 |
| EAIIEWWFHDSLASHSCTEV | 0.58 ± 1.2 |
| AMRLMDILCLIVCPHEYMWP | 1.54 ± 0.17 |
| GIRSLFGGKCWDHGSFMWKF | -0.195 ± 0.54 |
| HLWFE | -0.146 ± 0.43 |
| VNHIWWEFQGVSAYSNFRRD | -0.417 ± 1.5 |
| MERDEFKFLGERLGWLSCWR | 1.04 ± 0.57 |
| VCNFLFAFSFW | 6.746 ± 0.064 |
| VATRYWSRLCTMFVHSTRTT | inactive |
| PGVSDPYLDECKVTFKI | 0.715 ± 0.31 |
| EWTSAWW | -0.355 ± 0.36 |
| SDNVSRLRILDR | 1.93 ± 0.47 |
| FWVRSGCVSMYGPRRVALEV | -0.003 ± 0.43 |
| HSYYGHPHTCFAMKEEVHVR | 0.035 ± 0.77 |
| RVVMLCLVCLFGVRGS | 0.827 ± 0.52 |
| EKLSRAVYPRASIRVVCMLF | -0.204 ± 0.34 |
| VIDRTEGTYCREITTFHYYN | -0.378 ± 0.62 |
| QVSANSY | 3.59 ± 0.082 |
| MASRHKEWRCVMYEHGLRAC | 0.58 ± 1.2 |
| QGINLVY | -0.342 ± 0.38 |
| TIFLQALGYSRWLLEISMDR | -1.06 ± 0.96 |
| NISDTIC | 0.474 ± 0.85 |
| MGFDLSRRTCLYYLVTLSW | 0.014 ± 1.1 |
| HSNMVNS | -0.73 ± 0.33 |
| VLYGADDVLVRVSTCVYMGG | -0.136 ± 0.25 |

| Substance | amyloid nucleation score |
| --- | --- |
| SMIPSNGTRLMLDSLTKYID | inactive |
| VYLKEEHGKFAGGPSPRCKP | 0.274 ± 0.46 |
| ERLGMWDSRMVQLWDSFCIE | 0.363 ± 0.48 |
| FIHALLSNYVSIIFSNDRIC | 2.31 ± 0.59 |
| WVWSLWYSRDGVKVFFDRQS | -0.39 ± 0.34 |
| LRSLAPCVLGKTGESEPRAF | 0.056 ± 0.58 |
| QRNHWLYGVTLMPCSHICIL | 7.594 ± 0.053 |
| CLNVCSLFRSTYRFKRVREC | 0.434 ± 0.37 |
| DWDSALPSLNFDSETPFYKS | -0.649 ± 0.48 |
| FCFLGRCEQHYYLEVHNGSE | -0.1 ± 0.49 |
| RYNCVDV | -0.765 ± 0.52 |
| HDTDAKVQILNA | 0.626 ± 0.69 |
| VSTSHCTSFVFNIYCKYDSR | 8.542 ± 0.052 |
| IYPRMCLRGFAACV | 2.91 ± 0.13 |
| WGAHCGWQF | -0.749 ± 1.3 |
| ADVEVC | -0.005 ± 0.56 |
| FIRFLNTVGSWSLWMPYMVF | 0.851 ± 0.42 |
| PVGRCDQRDTRIHWGNYKVE | inactive |
| RFTSDAQ | -0.524 ± 0.24 |
| TQMMDALFLSAL | 0.935 ± 0.79 |
| LVIALSQTDAYGELVSRNMC | 1.06 ± 0.97 |
| LIRREHSRL | inactive |
| NAFCHAYSI | -1.49 ± 1.2 |
| SKTSEGLLLYVISYRNYYGP | 0.671 ± 0.4 |
| RYLDSLYKPRYYYQMVAIYG | 0.004 ± 0.41 |

| Substance | amyloid nucleation score |
| --- | --- |
| QNFDHTIHRISVVVPGA | -0.099 ± 1.6 |
| NLGAMWLNVVPVYLKWVAL | -0.095 ± 0.32 |
| FCSLLHPFTWYLSEHSMGLG | 0.541 ± 0.57 |
| SGVLLINGVA | 0.699 ± 0.42 |
| QWNEDLSLWPDLKYGHMLLS | 0.052 ± 0.52 |
| YMGPFVPFSRTTAYNVSTFK | 0.42 ± 0.79 |
| VRTSVCCTRALAMLRSLWVT | -0.625 ± 0.73 |
| QEDRGPLLHFRLNSYNVMTQ | 0.471 ± 0.62 |
| LVGRYSWWQRRRHGTCMGTV | 0.629 ± 0.54 |
| VLHEGCIMFKKLLLKALCRR | -0.128 ± 0.45 |
| TSGLSGSESKESTDKCCIEC | 0.713 ± 0.92 |
| LVRWVCIGFRYILRGELGVE | 0.052 ± 0.28 |
| TRTNLVAPCIMEVLSNVHRY | inactive |
| MDWNQGVAGATMIYLCFNNN | 7.881 ± 0.064 |
| CIVNMNRGWISIDLLRD | 5.78 ± 0.073 |
| LMYQSFRLTGSYVVIFLYES | -0.543 ± 1.1 |
| IMGVDVLGYTLDPVGDCNVF | 0.412 ± 0.73 |
| SMDNYIVNSSTVWPSSFSLK | 4.73 ± 0.075 |
| DWRLNLVYKMSA | 0.734 ± 0.75 |
| TIFVPGALVDFAAGGTHQLI | -0.088 ± 1.3 |
| YSVSWQLFGIDVCTFVTVRS | 0.367 ± 0.52 |
| INIVVMGMAGRRQGVPVACV | 1.59 ± 0.72 |
| DDPLNVTHKVRN | 5.31 ± 0.069 |
| WKGMMQFDMSHSCVYWWKCA | 0.71 ± 1.1 |
| LIYYNLIGHRVSWGEVGYFV | 0.014 ± 0.35 |

| Substance | amyloid nucleation score |
| --- | --- |
| HAIGTQMVTLGLRSISFSWN | 1.19 ± 0.67 |
| GCTRNCSKCKGMHSQRHPYP | -0.837 ± 2.4 |
| VNGYFAASDECFWCRSAGPN | 0.555 ± 0.34 |
| RENYRAGTFVYGSPRLGPAW | 0.44 ± 0.88 |
| YIFWLYWRQSSSNCLGDVKW | -0.46 ± 0.46 |
| GLRVLFGLLGVCPCRDSQWG | inactive |
| KDRMITPKPTVVTHLVVSYG | -0.23 ± 0.22 |
| RRWGFRAERVL | 0.269 ± 0.61 |
| SDRNERSVLSTCFGGCVPTG | 1.14 ± 0.24 |
| LFGLYFICSLKAISSYTERL | 0.456 ± 0.23 |
| GSCDYRFYNQLGEWNGYRMA | -0.348 ± 0.49 |
| SNLLGSMFLLCHQIKHRPEI | -0.764 ± 0.34 |
| WLSSKGRQSMSYCAYTMRTP | -0.247 ± 0.34 |
| EDLRVTGAKGYGCAECRACV | -0.186 ± 1.9 |
| MRGTSEFYLVRGRYTCISRG | -0.292 ± 0.45 |
| QTRSPQFKPAAYRVFLVDLC | -0.159 ± 0.77 |
| QRIFTRLIYIRYAIPKFRTK | -0.399 ± 0.32 |
| DTSYGLQRVCKGR | 0.429 ± 0.53 |
| ICGYWSLKVVCRMCHPYGNG | -1.17 ± 0.85 |
| INNTLNI | 0.793 ± 0.47 |
| VLSVNAV | -0.482 ± 0.51 |
| RFVRYQSQHFHKLNSWWGCL | 0.135 ± 0.39 |
| IPLGPGLPACINEGLKNPVS | -0.439 ± 0.67 |
| WLLISSALIIYVRHGLIRSM | -0.455 ± 0.81 |
| GMHLNCHGCILSSV | -0.021 ± 0.77 |

| Substance | amyloid nucleation score |
| --- | --- |
| CGVLKTRIPLCFGVFEWNSL | 0.475 ± 0.72 |
| DSCLEGM | 1.5 ± 0.66 |
| YPGQARNRVLCCGWKFFIDQ | 3.39 ± 0.15 |
| ARTDWFLNSRSSDYAIGFPY | -0.157 ± 0.79 |
| FVGFDCYNSVSCCFTMRVSE | 4.02 ± 0.065 |
| RRLKETKT | inactive |
| DNMFDTWLSGATV | -0.554 ± 0.66 |
| EYNSFWTVVSMILTVKWLSG | 0.502 ± 0.24 |
| SFFLLPMWLIVGSRGHQRRT | inactive |
| SLLPDPHYMTQVW | -0.559 ± 0.55 |
| YCANQRNSVPMGRMEPHSSS | -0.2 ± 0.49 |
| RWPDQCLLMLWMVLLFPSWE | -0.552 ± 0.28 |
| IENDGMSRAFC | 0.635 ± 0.67 |
| CLKWTVNIDGFIPDARLPRS | 3.18 ± 0.18 |
| SYMKQINTGKVFRAHYVLLA | 0.117 ± 1.1 |
| RLTFKYIKFAMS | 0.206 ± 0.36 |
| EVFDDCGGLMNYM | inactive |
| LTFLRIYAIDSEPHLSGTML | -0.51 ± 0.71 |
| RYSFLANGASSFGCVVLFSL | 0.503 ± 0.93 |
| GHKNTRILQV | -0.444 ± 1.9 |
| LTEDMNYFAY | 0.252 ± 0.46 |
| YDRVYLNQFVRTESVHFFCL | 6.341 ± 0.056 |
| ELKQIKVGRSLWRMVRRMGD | 1.37 ± 0.36 |
| VWFNPYLNDRSREGGRVVWM | 0.099 ± 0.27 |
| TTFFYYSEGKIR | -0.657 ± 0.51 |

| Substance | amyloid nucleation score |
| --- | --- |
| DWVLTGGRIWK | -0.803 ± 0.54 |
| HSSWEYSSYGVPSNMEKDWV | inactive |
| WEVVMWRYCAPRTGVLPQKP | -0.535 ± 1.2 |
| IFCVMVLSWSAVDPALSVA | -1.03 ± 0.81 |
| QFSCIPESTYSS | 0.047 ± 0.41 |
| LYSAGRCYARSCVKL | 0.829 ± 0.27 |
| WWYQCHCSYYHAIGITSVQE | 1.39 ± 0.63 |
| GHSRRLYCGLEAGARCGFSR | -0.455 ± 1.5 |
| VSFNGFLHLFWVFILLNSPW | 6.98 ± 0.085 |
| WMDTLVSIGRGGMLRVSCSG | 0.519 ± 0.49 |
| TMSASLNYLTLVMN | 0.129 ± 0.59 |
| NFLLTRPAAHELC | inactive |
| RILTDLRKICADCNRILPFW | -0.557 ± 1.2 |
| YDRMRTSIVRACERNLSDMH | 0.786 ± 0.35 |
| GIISFANRQSF | 7.944 ± 0.044 |
| ACYRATNMSCRRGHKLAGGF | inactive |
| LSLRCCGFYLIVFFVIKFVS | -0.536 ± 0.29 |
| VCIVPIVYPLFKFSVSNDPT | -0.202 ± 0.57 |
| FDWGGTAYKKA | 1.01 ± 0.97 |
| ILSRKGLLVQRKRVNVVVIP | 0.437 ± 0.32 |
| TVASRFEFYTKDWAYRNGRL | 1.76 ± 0.33 |
| CGEFGR | -0.682 ± 0.52 |
| YCWRVSHLGNGRYRLSLSFG | inactive |
| VNYFARSGASKICML | -0.366 ± 0.88 |
| LGYEGWYTRVIYGKVALWME | -0.215 ± 0.59 |

| Substance | amyloid nucleation score |
| --- | --- |
| FSGHFNARGFSDSWYVCMIG | -0.855 ± 1.6 |
| VKDATSHASGDFGRPGHWDK | -0.042 ± 0.55 |
| LQQITGSCSFSGWGLK | 0.091 ± 0.46 |
| CCLEWRWLRMEDDPVNGEDV | -0.073 ± 0.43 |
| RLFITCRAL | 2.52 ± 0.18 |
| KVFRLILGGVSNKYT | 0.228 ± 0.64 |
| SRVISLPVLKI | -0.302 ± 0.9 |
| MWNGMAGMSQAGSCQRCS | -0.287 ± 0.71 |
| KGWWKGLRARSQGPGVSDVW | -0.314 ± 0.57 |
| RLTVTADWHHHWRLVRQFKA | -0.044 ± 0.71 |
| DGSLKVELQR | 1.14 ± 0.49 |
| LVTFPKLSEVIHGKADVMHS | -0.633 ± 0.88 |
| GFNDGVVR | 0.874 ± 0.55 |
| QISVGTYWFANWCGIILNQV | 1.99 ± 0.28 |
| TVITFRLAT | 1.69 ± 0.26 |
| ANGMEGL | 1.13 ± 0.81 |
| SLSRD | -0.393 ± 0.41 |
| LCIIYVNYSGLLMTVNISSF | inactive |
| QTGRFDIVSAS | 3.52 ± 0.069 |
| LVESMNLIPATANRHNFTRL | -0.672 ± 1.4 |
